Measured values reported in a protein production outcome set (Wang et al. 2014).

Test: label from the status in PepcDB records

MYLRRFYDEGLAHASYLVGCQETGEACVIDPARDVEPYLLTAKREGLRIVAALETHIHADFVSGAREMADRAGAAICVSDEGPPEWKSEYVKAYPHRLLKDGDELHFGNVRIVVMHTPGHTPEHVSYLLYDGKTSPDVPMALFSGDFVFVGDVGRPDLLERVAGESGSSEALARQMFRSLRKFEALPDHVQVLPAHGAGSACGKALGAVPSSTVGYEKLVNWALQHKDEDAFVQALLAGQPEAPIYFARMKLVNKVGPRLLAELGAPERVDLPPERVRAWREGGVVLDVRPADAFAKRHLAGSLNIPWNKSFVTWAGWLLPADRPIHLLAADAIAPDVIRALRSIGIDDVVDWTDPAAVDRAAPDDVASYANVSPDEVRGALAQQGLWLLDVRNVDEWAGGHLPQAHHIPLSKLAAHIHDVPRDGSVCVYCRTGGRSAIAASLLRAHGVGDVRNMVGGYEAWRGKGFPVEA
protein production: not failed

MRKAWVKTLALDRVSNTPVVILGIEGTNRVLPIWIGACEGHALALAMEKMEFPRPLTHDLLLSVLESLEARVDKVIIHSLKDNTFYATLVIRDLTYTDEEDEEAALIDIDSRPSDAIILAVKTGAPIFVSDNLVEKHSIELEVNETQDEEEEFKKFVENLNIDTFKQMIEKKREEDEEGES
protein production: not failed

MKNSFFSKFTPKEPKFFPLLKQLSDVLSASSVLLVESMEHDLPTERADYYKQIKDMEREGDRLTHLIFDELSTTFITPFDREDIHDLASCMDDVIDGINSSAKRIVIYNPRPISESGKELSRLIHEEAINIGKAMDELETFRKNPKPLRDYCTQLHDIENQADDVYELFITKLFEEEKDCIELIKIKEIMHELEKTTDAAEHVGKILKNLIVKYS
protein production: not failed

MSRVPEPSVFLVVDEAKRKARERGVGLIDLSIGSTDLPPPEAPLKALAEALNDPTTYGYCLKSCTLPFLEEAARWYEGRYGVGLDPRREALALIGSQEGLAHLLLALTEPEDLLLLPEVAYPSYFGAARVASLRTFLIPLREDGLADLKAVPEGVWREAKVLLLNYPNNPTGAVADWGYFEEALGLARKHGLWLIHDNPYVDQVYEGEAPSPLALPGAKERVVELFSLSKSYNLAGFRLGFALGSEEALARLERVKGVIDFNQYAGVLRMGVEALKTPKEVVRGYARVYRERALGMAEALKGVLSLLPPRATMYLWGRLPEGVDDLEFGLRLVERGVALAPGRGFGPGGKGFVRIALVRPLEELLEAAKRIREALD
protein production: not failed

MLVSLIYVFKQVLSANLDLFYILSLILLIKSLIKKEKYLIKLLYVIYIILFYTGIQIIFLNTSIDLIRYFVSSFKLILNFNLLFYIIKKIKFININKIIKNISYIFFIILVFALILRNNNILWRLNDYVNTFEEVRLRFFYYEPSELGFQVAIIIIIFVFKIYTKKIINKKDFCIIIFLSIILSLTSAYGAIISLMLALIPILFKSFKLNSYKKLLIAYSIILISIVIIYLNFYKISDSYIVQRGLSIISGEDGSVNYRFDIGLNIMINALKNTNLLGVGLSNANTDNFIIEYSNFGLVEVIANSFMYVITELGVLAVVFLVYLLIKCLISAKINNSILKLSLIIYIFSYQIAGGYFSNPTNWIIYGIILSNIKDEELFGRKD
protein production: failed

MKPVKPPRINGRVPVLSAQEAVNYIPDEATLCVLGAGGGILEATTLITALADKYKQTQTPRNLSIISPTGLGDRADRGISPLAQEGLVKWALCGHWGQSPRISDLAEQNKIIAYNYPQGVLTQTLRAAAAHQPGIISDIGIGTFVDPRQQGGKLNEVTKEDLIKLVEFDNKEYLYYKAIAPDIAFIRATTCDSEGYATFEDEVMYLDALVIAQAVHNNGGIVMMQVQKMVKKATLHPKSVRIPGYLVDIVVVDPDQSQLYGGAPVNRFISGDFTLDDSTKLSLPLNQRKLVARRALFEMRKGAVGNVGVGIADGIGLVAREEGCADDFILTVETGPIGGITSQGIAFGANVNTRAILDMTSQFDFYHGGGLDVCYLSFAEVDQHGNVGVHKFNGKIMGTGGFIDISATSKKIIFCGTLTAGSLKTEIADGKLNIVQEGRVKKFIRELPEITFSGKIALERGLDVRYITERAVFTLKEDGLHLIEIAPGVDLQKDILDKMDFTPVISPELKLMDERLFIDAAMGFVLPEAAH
protein production: not failed

MRHMSGDHAALVLGAGAGRRLGRSKQLLMRDGEPLLRRAARIALLTAPRRCVVVLGADADTLSEVLQDLDIEILRHPDWSEGMGSSLAALRRHVQGDPALRRSLILGCDQPALDAPHLRSLLEEADRAVSGCATSGYSGVRGIPAVVTHTAWADVPLQADSGLRGLFASLDMQSLGCVSAPALALDIDTPADLATAQQRGWVDAELEHHHHHH
protein production: failed

LGVVPEVRDWFTLGDHRFLVMDFLEGRPLNSFFAERHPLLTPDPEPDAVAAYTAWALRIHRAVEQAVHAVHARGIVFNDLHVFNIMVAPDEESVSLLDFEAAAPIEEN
protein production: failed

MQRDVSSCNTYNYGDALYWDARYVQDALSFDWYQCYSSLRPFVRSFVSTSSRVLMVGCGNSLMSEDMVKDGYEDIMNVDISSVAIEMMQTKYASVPQLKYMQMDVRDMSYFEDDSFDTIIDKGTLDSLMCGSDALLSASRMLGEVSRLIKPGGTYFLITYGDPKVRMPHLTRSAYNWKISLYIIPRPGFKRPESCSSSAKSCMEAIPITSEGMLPHDYVLEDPDSHFIYICKKKDEDEEAQLPSYPLMEDVL
protein production: failed

MGRKRGNAIMEKTKIDIISGFLGAGKTTLIKKLLKDAFQGEQVVLIENEFGEIGIDGGFLKEAGIQIREMNSGCICCSLVGDFGASLKEVISKYHPDRILIEPSGVGKLSDVIKAVQGVEEETGLVLNSYTTVVDAKKCKMYMRNFGEFFNNQVEYAGAIIMSRTDIVDEAKAQASLELLREINSKAAIITTPIEKLEGKKLLEVMEHPVSLADELMEEEEVCPECGHVHEHGEHHHHDHDEECGCGHDHDHEEHEHHHHDHDEECGCGHDHAHEEHEHHHHDHDHECGCGHDHHDHHHHHADEVFTSWGRETIKKYTKENLEKMLEALSASDEYGIILRAKGMLPAEDGTWIYFDMVPEETEIREGAPEYTGRLCVIGSKLNEDKLAELFGL
protein production: failed

MDELIKILHAQFGHASFRPGQREVVEDVLAGRDVLAMLPTGSGKSLCYQLPAYLLPGSVLVVSPLVSLMEDQVEQLRRRGEKRVIAFHSLLDAEEKWQALASLPDFRFIYASPEMLQSAKFLTALGRTRISLFVVDEAHCISQWGYDFRPDFLKLGTVRRALGSPPCLALTATAPPEVRDDIVRTLGMERACLHIYSVDRPNIALKVEYCLSAEEKAARLVEYARQLEGPGIVYFSSRQWAEEMARRLEQSGAGRVAYYHAGMDGEQRLLVQQQFLYGQLDIVCCTSAFGMGVNKENVRFVLHFHMPAQLEAYVQEIGRAGRDGAPSLAVLFYADGDRAIAQAVAEAELPDPHELREWCWRLPDNVAVEQWNAAIEASGFTEIQKRLLTYLLEWGQTAPPGRLTAEVKEQLYERMAAAIETRRRWKRKKLHEMDDWVHTSSCRRAMIVRAFGEELMDKPGDCCDCCGLRLDAYMRDTRRLAAAPIRHWREELWQMFFSRGRQDETAK
protein production: failed

MSCHLSYLEGTMEFMISGRNLTVSDRFREYAGEKISKIESLGDKVQRVDAKVSKETNPRQTPGELTVEVTVLGRGPVIRAEATAADKFAAFDLAYNKLLERLRRAKDRKKVHHGRHTPKAVREATATLEPASASEPLYVEASNHQESAPPVDERSPYDIENDIPAGDSPVLIRRKVFPAASLTLDDAVDNMELVGHNFYLFLDKETNAPSVVYRRSGWTYGVITLDSTCEPGEEAVEEKIHAYRSDDQAATAK
protein production: failed

MPPPIHPSSSAAPGPVPNHLIWAIVSTVLGFCLCCPALISGIVAIVFSSKVNGLLNQGDIDGARRASNTAKTWCIVTSVLAAIGLLINIGMVATGGMQGYMDYMQQLQHMQ
protein production: failed

MTQTDRPCLAALVILILLQLIMLFSLFAGVPPHPPIATPLFGIGPFIGASVSAAIAAIVLGESRAARVLALLAVLGALVSFGPQKYLDPQFPLIWPAVIAAQLAAITVLVRLLPALSRQDA
protein production: failed

MDRIKSWEYDDVYNKFAIKDLDKSSFKRGSHIPIKVRKVFECEDIKYGDKKKITLIYKGEAFPAEIEGEIKGRIRMNWPKLIPKMKEVFKNEINDFEDSKELSVRVPRLKFTKETAIKYDVEMKTKYSHDVLCELERLDIDVENKTIEEINEVGEVIERVVKARKNQNKFREALFKRDGKCKICGLAHKELLIASHIKPWSKSTPEEKLNPFNGFLLCPNHDSLFDKHLISFKDNGEIIISKRLSEKEQELLSINKDIMINIEEGNKKFLKEHRDVFCKIEKAFDLEKELAISNKEIYNVELEV
protein production: failed

MIEKKRIEIFPKHMGFFPYMWFVYLLFPIYHLAQASGWKLVIGSGMLIIFIVTYRQLYFVQRTFVFWACIQMVLIFLFALFYNPFMIFFGFFTASAMGFAPNKKVFRVLLCSLVIMLGAFLFVNMNQLTTTSLVNIVPMFILMILTPFGMRNFNQKKMLRNQLDQANEQIKDLVKREERQRIARDLHDTLGHTLSLITLKSQLVEKLIVKNPERASAEAKEITQTSRTALKQLRELISDMRMITVEEELEQIKAILQAANIELEVRQEARSSSLSPIEQNIVGMCLREAVTNVVKHSKATRCAVSVLESQGELILKVEDNGIGLTDQNHDGNGIRGMKERIALIDGFVELGTINPGTLLTVKVPVVIRTGKDEVRA
protein production: failed

MALFKRSSASAKGFDWMGLLWLFLFFWYFSGITQLLIQLTDTSGFTGFRQAFFMSAIWLAPMLLFPARTKVMAAVIGVVLWACSMASLGYFFVYQQEFSQSVIFIMFESNPSEAGEYLTQYFAWWMLLAFLAHSAFAFFLWTRLRPVYLPRGQALVAATAILVAIVGYPLVKQISRADTLAAGLEKFETRIEPAVPWQMVIAYRRYREQLDGMQGMLASASKIAPLTNLKDSMANQPATLVLVIGESTNRQRMSLYGYPRQTTPELDKLKDQLAIFNNVITPRPYTIEALQQVLTFADEENPDLYLKSPSLVSVMKQAGYKTYWITNQQTMTKRNTMLTTFSEQADEQVYLNNNRNQNARQYDGDVLEPFSKALADSAPRKFIVVHLLGTHMSYQYRYPPSFDKFNDRQGVPAGVRDDQLPTYNSYDNAVLYNDFVVSNLIKNYAKTDPNGFLLYLSDHGEDVFDSAGHDTLGRNEARPTAPMYTIPFMAWASPKWRETHDWSFASDLSRPYMSSQLIHTWADLAGLSFDELDHSRSLVSDSFKPRPLLIGDPYSRQSKPLIDFSLMKPKAPVEATVVQK
protein production: failed

MSNTVRAISPDITLFNKTLTFQEISQNTREAVIYIHGGAWNDPENTPNDFNQLANTIKSMDTESTVCQYSIEYRLSPEITNPRNLYDAVSNITRLVKEKGLTNINMVGHSVGATFIWQILAALKDPQEKMSEAQLQMLGLLQIVKRVFLLDGIYSLKELLVEYPEYDCFTRLAFPDGIQMYEEEPSRVMPYVKKALSRFSIDMHLVHSYSDELLTLRQTNCLISCLQDYQLSFKLYLDDLGLHNDVYKNGKVAKYIFDNIC
protein production: not failed

MTLSFFRPRARKVTAAVLLMTWLAPVSPLALAQPASVPAAPAGAAAAEQVQSNLNRSVQIGRQSPYLQKDATIIDAPTYELPDMGDPSTAALSPEMERRLGDRVMRQIRRDPDYVPDPLLSDYLNDIGYRLIEAARRQHVAGSTSASSFELFAVRDPGINAFALPGGYIGVNTGTLVATESESELASVLGHEIGHVLQRHIARGIDKSGESMWIALASILLAGLAATKSGDAAQALAVGGQAAAVSNQLAFSRGAEREADRVGFTLLTGAGYNPDGMPDFFRRLQRVSSIADTGAVPGYARTHPLTGERIADMEDRARGLPHPRQPQRPAFGFAKARARVLQETSTSAYLDVRNAMRSQLASAPDAPAEKRAALWYGIAVAEQLAGQLDPAEQALLEARRLYGNIPGLTSGSPSLDVTAIELARARNRVPEALTMARAALAAYPLSRAVGITYAQTLLAAGRAGDAIPYLQDKAREDTAQPIWWDMLARAYADQGKRVEQHRALAEKYARDGAWGAAVEQLKLARDAGDADFYTLSEVDARLHQMERQYREEKQEEKALPK
protein production: failed
